In one test the target is β-arrestin-1-R7-F2Y (UniProt P17870). In words: 19F-NMR.
A further test concerns the target β-arrestin-1–Y63-F2Y (UniProt P17870). In words: 19F-NMR.

The text below walks through data of publication PMC4569848.

Chain of β-arrestin-1–Y63-F2Y (P17870 whole entry, stated change not applied): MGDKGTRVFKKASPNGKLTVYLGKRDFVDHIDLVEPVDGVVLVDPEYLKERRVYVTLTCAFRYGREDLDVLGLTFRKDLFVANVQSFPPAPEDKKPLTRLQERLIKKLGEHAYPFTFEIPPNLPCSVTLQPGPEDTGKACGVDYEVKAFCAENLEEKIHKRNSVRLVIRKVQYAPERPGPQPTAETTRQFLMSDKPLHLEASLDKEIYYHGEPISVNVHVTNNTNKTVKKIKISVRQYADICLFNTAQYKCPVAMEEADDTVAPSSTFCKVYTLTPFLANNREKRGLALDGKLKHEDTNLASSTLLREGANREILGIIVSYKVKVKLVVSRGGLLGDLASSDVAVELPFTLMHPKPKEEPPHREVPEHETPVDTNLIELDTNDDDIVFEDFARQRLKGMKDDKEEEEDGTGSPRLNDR
Chain of β-arrestin-1-R7-F2Y (P17870 other isoform, or with tags, fused parts or gaps R7-F2Y): as the sequence (P17870 whole entry, stated change not applied) above, with R7Y counted along it

Consider “GRK6pp (GRK6-phosphorylated β2AR C-tail) E369A”, for which the other: 19F chemical shift change in the test with β-arrestin-1-R7-F2Y stood at 0.01 p.p.m; with β-arrestin-1–Y63-F2Y, 0.89 p.p.m.

Consider “GRK6pp (GRK6-phosphorylated β2AR C-tail) pS355S”, for which the values for the other: 19F chemical shift change with β-arrestin-1-R7-F2Y and with β-arrestin-1–Y63-F2Y were 0.09 p.p.m and 0.02 p.p.m, respectively.
